Measurements reported in the Human Domainome abundance scans (Beltran et al. 2025).

B1: Pre-mRNA-processing factor 40 homolog B, residues 274 to 332; numbered along this chain, Q6NWY9 (parent)
chain: SNREKAKQAFKELLRDKAVPSNASWEQAMKMVVTDPRYSALPKLSEKKQAFNAYKAQRE

Variants of: B1
Test: abundance fitness (aPCA) (normalised: wild type 0, dead -1); higher = more abundant; growth selection in yeast, the domain comes from the species named
Settings: Homo sapiens

Abundance fitness: each site, then its substitutions
E4: C -0.668 | P -0.566 | D -0.01 | W -0.642 | G -0.374 | S -0.156 | Q -0.233 | N -0.074 | L -0.23 | R -0.45 | F -0.294 | K -0.368 | A -1.5 | T -0.433 | Y -0.457 | M -0.41 | V -1.08 | I -0.025 | H -0.082
A9: H -0.458 | E -0.038 | N -0.279 | W -0.72 | C -0.094 | K -0.196 | L -0.092 | F -0.563 | P -0.536 | I 0.081 | R -0.364 | Y -0.417 | M -0.119 | S -0.106 | T 0.117 | D 0.09 | Q -0.041 | G -0.292 | V 0.003
E12: T -0.301 | S -0.283 | G -0.491 | R -0.62 | A -0.231 | L -0.632 | K -0.469 | F -0.718 | V -0.705 | W -1.15 | H -0.297 | N -0.128 | Y -0.817 | M -0.705 | Q -0.249 | D -0.152 | C -0.602 | P -0.988
R3: L 0.044 | P 0.034 | G -0.084 | D 0.036 | I 0.06 | A -0.409 | K 0.308 | C 0.043 | T -0.062 | N 0.221 | W -0.251 | F -0.27 | M 0.07 | E -0.047 | S 0.076 | H -0.281
K11: L 0.159 | W 0.082 | H -0.17 | E 0.004 | F 0.061 | A 0.145 | S -0.001 | I 0.233 | R -0.03 | G -0.16 | C 0.061 | Q 0.343 | T 0.217 | N -0.137 | D -0.386 | Y -0.155 | P -0.322
R15: W -0.106 | G -0.211 | A 0.001 | H 0.064 | N 0.015 | V -0.001 | P -0.593 | I -0.052 | Q -0.062 | K -0.129 | Y -0.091 | M 0.219 | C -0.171 | L -0.097 | D -0.238 | E 0.046 | F 0.019 | S -0.214
D16: N -1.23 | W -0.579 | R -0.7 | H -1.03 | A -0.461 | M -1.03 | F -1.05 | Q -0.443 | P -0.875 | C -0.933 | L -0.584 | T -0.351 | S -0.486 | K -0.699 | Y -0.888 | V -0.716
K5: N -0.081 | D -0.012 | E -0.049 | Y -0.179 | C -0.134 | V -0.063 | I -0.171 | P -0.409 | G -0.187 | M -0.024 | H -0.203 | S -0.055 | Q -0.07 | W -0.553 | R -0.193 | L -0.177 | T -0.042
N2: G -0.207 | C -0.547 | S -0.208 | Y -1.01 | Q 0.037 | D 0.033 | H -0.83 | L -0.581 | W -0.276 | R -0.324 | M -0.393 | E -0.089 | A -0.406 | K -0.139 | V -0.849 | I -0.46 | P -0.497 | T 0.027
K7: A 0.027 | P -0.587 | C -0.276 | V 0.124 | F 0.104 | Y -0.016 | H 0.065 | I -0.055 | Q 0.062 | L 0.065 | R -0.174 | M 0.144 | T 0.042 | N -0.074 | G -0.319 | E 0.135 | S -0.005
A6: I -0.153 | Y -0.56 | T -0.394 | L -0.566 | H -0.201 | D -0.002 | Q 0.009 | V -0.331 | G -0.05 | E 0.172 | S -0.194 | M -0.539 | R -0.381 | K -0.243 | W -0.948
L14: S -0.384 | E -0.339 | T -0.547 | Y -0.925 | W -0.963 | C -0.483 | P -0.261 | Q -0.339 | V -0.385 | D -0.504 | R -0.71 | G -0.403 | A -0.452 | M -0.639 | K -0.408 | N -0.376 | I -1.05 | F -0.683 | H -0.573
Q8: H -0.341 | L -0.108 | T -0.065 | G -0.301 | A -0.145 | C -0.386 | Y -0.49 | W -0.581 | R -0.241 | I -0.069 | M -0.416 | S -0.362 | F -0.412 | P -0.42 | N -0.585 | E 0.003
S1: C 0.042 | P -0.478 | V 0.13 | N -0.042 | T -0.032 | G 0.07 | D -0.357 | W -0.417 | M -0.364 | K 0.135 | E -0.206 | L 0.045 | R -0.084 | Y 0.089 | F 0.15 | I -0.075 | A -0.015
P20: C -0.59 | E -0.364 | D -0.395 | A -0.451
F10: K -0.318 | I -0.25 | W -0.869 | E -0.067 | M -0.4 | L -0.424 | G -0.277 | H -0.132 | C -0.611 | D -0.22 | Y -0.282 | T -0.048 | P -0.177 | R -0.332 | V -0.511 | S -0.254
V19: C -0.583 | F -0.932 | T -0.231 | Y -0.992 | S -0.533 | N -0.598 | M -0.32 | E -0.375 | D -0.295 | W -0.589 | K -0.807 | P -0.477 | Q -0.383 | H -0.938 | G -0.479 | A -0.612 | I -0.462 | L -0.606 | R -0.633
K17: M -0.038 | S -0.365 | G -0.599 | I -0.651 | A -0.106 | Q -0.213 | C -0.38 | E -0.437 | H -0.239 | T -0.429 | D -0.72 | L -0.605 | V -0.525 | Y -0.189 | P -0.573 | F -0.146 | R -0.107 | N -0.07
A18: F -0.539 | N -0.067 | T -0.282 | V -0.367 | R -0.035 | D 0.045 | H 0.074 | P -0.606 | W -0.473 | S -0.089 | M -0.096 | L -0.127 | Q 0.101 | C 0.007 | I -0.536 | Y -0.656 | K -0.043 | E -0.012
L13: W -1.02 | V -0.511 | H -0.411 | M 0.122 | D -0.262 | N -0.482 | I -1.12 | C -0.244 | Q -0.286 | F -0.668 | A -0.327 | T -0.48 | Y -0.559 | E -0.377 | G -0.331 | R -0.491 | K -0.388
